Positions count from the first letter of the chain named.
T1: soluble mouse GPNMB (recombinant extracellular domain) (mouse, UniProt Q99P91 23-502)
T1 construct: also called moGPNMB; not shown: C-terminal polyhistidine or Avi-His tag
T1 sequence: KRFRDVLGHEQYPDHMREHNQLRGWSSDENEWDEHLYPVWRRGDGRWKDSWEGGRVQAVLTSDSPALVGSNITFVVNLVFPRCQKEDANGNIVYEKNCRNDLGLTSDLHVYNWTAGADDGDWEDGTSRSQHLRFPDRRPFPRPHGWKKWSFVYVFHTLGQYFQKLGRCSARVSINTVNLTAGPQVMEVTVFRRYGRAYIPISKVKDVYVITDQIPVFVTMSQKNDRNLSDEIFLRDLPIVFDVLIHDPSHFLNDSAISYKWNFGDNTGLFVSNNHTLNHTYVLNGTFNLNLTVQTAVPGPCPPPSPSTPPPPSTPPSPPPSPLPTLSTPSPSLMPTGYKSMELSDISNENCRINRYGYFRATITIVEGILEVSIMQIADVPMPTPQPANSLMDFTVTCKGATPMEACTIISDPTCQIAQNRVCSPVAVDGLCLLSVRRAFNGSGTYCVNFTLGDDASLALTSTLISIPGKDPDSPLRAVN

T2: full-length untagged human GPNMB expressed on cells (human, UniProt Q14956 23-572)
T2 construct: also used here for GPNMB on human monocyte-derived macrophages in the functional assays; also called huGPNMB; Freestyle293-huGPNMB+
T2 sequence: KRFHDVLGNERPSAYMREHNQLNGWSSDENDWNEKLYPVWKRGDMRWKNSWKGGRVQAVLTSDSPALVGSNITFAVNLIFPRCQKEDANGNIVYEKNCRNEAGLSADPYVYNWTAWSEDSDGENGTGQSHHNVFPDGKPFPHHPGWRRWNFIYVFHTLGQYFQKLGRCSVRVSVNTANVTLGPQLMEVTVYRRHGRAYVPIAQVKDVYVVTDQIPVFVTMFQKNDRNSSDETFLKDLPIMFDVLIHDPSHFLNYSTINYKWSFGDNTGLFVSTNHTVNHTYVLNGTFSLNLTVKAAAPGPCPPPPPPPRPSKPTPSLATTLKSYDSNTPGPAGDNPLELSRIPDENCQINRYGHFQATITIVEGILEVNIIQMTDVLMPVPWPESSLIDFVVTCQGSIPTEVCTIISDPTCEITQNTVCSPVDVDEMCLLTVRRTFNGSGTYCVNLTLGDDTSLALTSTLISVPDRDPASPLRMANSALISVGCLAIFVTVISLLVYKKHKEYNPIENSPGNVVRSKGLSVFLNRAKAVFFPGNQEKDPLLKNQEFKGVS

B1: anti-GPNMB antibody GPN-52 (antibody, human IgG1, V domains shown)
VH: DVQLQESGPGLVKPSQTVFLTCTVTGISITTGNYRWSWIRQFPGNKLEWIGYIYYSGTITYNPSLTSRITITRDTPKNEFFLEMNSLTAEDTATYYCARDLTHWYFDVWGTGTTVTVSS
VL: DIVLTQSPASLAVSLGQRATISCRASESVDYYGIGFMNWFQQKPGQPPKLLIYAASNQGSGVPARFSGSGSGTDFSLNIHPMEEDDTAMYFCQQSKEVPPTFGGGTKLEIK
notes: chimeric
B2: anti-GPNMB antibody GPN-61 (antibody, human IgG1, V domains shown)
VH: B1 VH with I69T, E79Q, N85S, Y96F, T102R
VL: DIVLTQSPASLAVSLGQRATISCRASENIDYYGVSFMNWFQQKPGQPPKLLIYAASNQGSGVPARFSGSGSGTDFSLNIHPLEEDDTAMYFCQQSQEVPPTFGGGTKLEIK
notes: chimeric
B3: anti-GPNMB antibody GPN-35 (antibody, human IgG1, V domains shown)
VH: EVQLVESGGGSVRPGRSLKLSCAAAGFTFSDYYMTWVRQAPTKGLEWVASINHDGGGTYYRDSVKGRFTISRDNARSSLYLQMDSLRSEDTGTYYCTTRAGWHWGQGVMVTVSS
VL: DIQMTQSPASLSASLGETVSIECLASEDIYNYLTWYQQKPGKSPQVLIYSASGLQDGVPSRFSGSGSGRQYSLKINGLESEDAATYFCLQDSEYPLTFGSGTKLEIK
notes: chimeric
B4: anti-GPNMB antibody GPN-38 (antibody, human IgG1, V domains shown)
VH: QVQLQQPGAELVRPGTSVRLSCKASGYTFTSYWIHWVKQRPGRGLEWIGVIDPSDSYTNYNQQFNVKATLTVDTSSSAAYMQLSSLTSEDSAVYYCARGLITAVNWYFDVWGTGTTVTVSS
VL: DIQMTQSPASLSTSVGEIVTITCRASENIYSYLTWYQQKQGKSPQLLVYNAKTLAEGVPSRFSGSGSGTQFSLKINSLQPEDFGTYYCQHHYGTPLTFGSGTKLEIK
notes: chimeric
B5: anti-GPNMB antibody GPN-41 (antibody, human IgG1, V domains shown)
VH: QLQLQQSGTEVVKPGASVKIPCKASGYAFSSYWMNWVKQRPGKGLEWIGQIYPGDGDTNDNGKFEGKATLTVDKSSNTAYIQLSSLTSEDSAVYFCARSPLHLRGSMDYWGQGTSVTVSS
VL: SIVMTQTPKFLLVSAGDRVTITCKASQSVSNDVAWFQQKPGQSPELLIYSASNRYTGVPDRFTASGYGTDFTFTISAVQAEDLAVYFCQQNYYSPFTFGGGTRLEIK
notes: chimeric
B6: anti-GPNMB antibody GPN-65 (antibody, human IgG1, V domains shown)
VH: B5 VH
VL: B5 VL with A64G, A77T
notes: chimeric
B7: anti-GPNMB antibody GPN-83 (antibody, V domains shown)
VH: QVQLQESGPGLVKPSETLSLTCTVSGISITTGNYRWSWIRQPPGKGLEWIGYIDYSGTITYNPSLKSRVTITRDTSKNQFSLELSSVTAADTAVYYCARDLTHWYFDVWGQGTLVTVSS
VL: DIVMTQSPDSLAVSLGERATINCKSSRSVDYYGIGFVNWYQQKPGQPPKLLIYATSIQGSGVPDRFSGSGSGTDFTLTISSLQAEDVAVYYCQQQKEVPPTFGGGTKVEIK
B8: anti-GPNMB antibody GPN-84 (antibody, V domains shown)
VH: B7 VH with F106Y
VL: B7 VL
B9: anti-GPNMB antibody GPN-85 (antibody, V domains shown)
VH: B7 VH with S67Q
VL: B7 VL with Y32F, V37L, I57H
B10: anti-GPNMB antibody GPN-87 (antibody, V domains shown)
VH: B7 VH with F106Y
VL: B7 VL with V37L, I57K
B11: anti-GPNMB antibody GPN-88 (antibody, V domains shown)
VH: B7 VH
VL: B7 VL with V37L, I57H, E97H
B12: anti-GPNMB antibody GPN-89 (antibody, V domains shown)
VH: B7 VH with F106Y
VL: B7 VL with V37L, I57H
B13: anti-GPNMB antibody GPN-90 (antibody, V domains shown)
VH: B7 VH with S67Q
VL: B7 VL with V37L, I57H
B14: anti-GPNMB antibody GPN-91 (antibody, V domains shown)
VH: B7 VH
VL: B7 VL with V37L, I57H, V98R
B15: anti-GPNMB antibody GPN-86 (antibody, V domains shown)
VH: B7 VH
VL: B7 VL with V37L, I57K

Target: T1, soluble mouse GPNMB (recombinant …)
Assay: SPR Carterra, Ab immobilized
Summary of the method: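 Analyte series of GPNMB extracellular domain (2.5, 7.4, 22, 67, 200, 600 nM) flowed in ascending order, no regeneration, over IgG1 antibodies EDC/NHS-immobilized on an HC200M array. HBS-EP+ plus 0.5 mg/ml BSA as running buffer, two blanks per series. Affinity estimated via high-throughput kinetic fitting.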

Binder	Kd	koff	kon
B1	4.6 nM	0.00082 s⁻¹	190000 M⁻¹ s⁻¹
B2	2.1 nM	0.00029 s⁻¹	130000 M⁻¹ s⁻¹
B3	2.1 nM	0.00012 s⁻¹	56000 M⁻¹ s⁻¹
B4	3.45 nM	7.8e-05 s⁻¹	23000 M⁻¹ s⁻¹
B5	0.4 nM	3.7e-05 s⁻¹	97000 M⁻¹ s⁻¹
B6	0.5 nM	5.1e-05 s⁻¹	100000 M⁻¹ s⁻¹

Target: T2, full-length untagged human GPNMB …
Assay: FACS titration, FS293-huGPNMB+ cells
Description: Affinity matured anti-GPNMB antibodies of the present disclosure were examined to determine their ability to bind human and mouse GPNMB expressed on FS293-huGPNMB+ or B16F10 cells, respectively. Cell-based affinity measurements were performed to ascertain the apparent affinities of anti-GPNMB antibodies to cell-surface expressed GPNMB. Serial dilutions of anti-GPNMB antibodies of the present disclosure were added to 100,000 FS293-huGPNMB+ or B16F10 cells and allowed to achieve binding equilibrium at 4° C. After addition of fluorescently labeled secondary antibody and brief washing steps, MFI values as a function of titrated antibody concentration were recorded via FACS analysis. Equilibrium binding curves were fit using nonlinear regression analysis with Graphpad Prism 6 software.

Binder	EC50
B7	0.203 nM
B8	0.241 nM
B9	0.385 nM
B10	0.317 nM
B11	0.192 nM
B12	0.167 nM
B13	0.148 nM
B14	0.24 nM
B15	0.203 nM
